Source: paper PMC2896673 (Journal of Biomedicine and Biotechnology, 2010)

Target: human procollagen V proα2(V) chain, produced in HEK-293 cells (human, UniProt P05997 27-1499)
Experiment: ion-exchange chromatography (DEAE-cellulose) with Western blot of the fractions; supernatant of medium of co-transfected HEK-293 cells (clone C22) after dialysis against 50 mM Tris-HCl pH 8.6; linear 0–0.6 M NaCl gradient; fractions double probed with mAb 18G5 and polyclonal antibodies to collagen V
Conditions: partners not purified

human procollagen V proα2(V) chain, produced in HEK-293 cells, sequence (P05997 27-1499): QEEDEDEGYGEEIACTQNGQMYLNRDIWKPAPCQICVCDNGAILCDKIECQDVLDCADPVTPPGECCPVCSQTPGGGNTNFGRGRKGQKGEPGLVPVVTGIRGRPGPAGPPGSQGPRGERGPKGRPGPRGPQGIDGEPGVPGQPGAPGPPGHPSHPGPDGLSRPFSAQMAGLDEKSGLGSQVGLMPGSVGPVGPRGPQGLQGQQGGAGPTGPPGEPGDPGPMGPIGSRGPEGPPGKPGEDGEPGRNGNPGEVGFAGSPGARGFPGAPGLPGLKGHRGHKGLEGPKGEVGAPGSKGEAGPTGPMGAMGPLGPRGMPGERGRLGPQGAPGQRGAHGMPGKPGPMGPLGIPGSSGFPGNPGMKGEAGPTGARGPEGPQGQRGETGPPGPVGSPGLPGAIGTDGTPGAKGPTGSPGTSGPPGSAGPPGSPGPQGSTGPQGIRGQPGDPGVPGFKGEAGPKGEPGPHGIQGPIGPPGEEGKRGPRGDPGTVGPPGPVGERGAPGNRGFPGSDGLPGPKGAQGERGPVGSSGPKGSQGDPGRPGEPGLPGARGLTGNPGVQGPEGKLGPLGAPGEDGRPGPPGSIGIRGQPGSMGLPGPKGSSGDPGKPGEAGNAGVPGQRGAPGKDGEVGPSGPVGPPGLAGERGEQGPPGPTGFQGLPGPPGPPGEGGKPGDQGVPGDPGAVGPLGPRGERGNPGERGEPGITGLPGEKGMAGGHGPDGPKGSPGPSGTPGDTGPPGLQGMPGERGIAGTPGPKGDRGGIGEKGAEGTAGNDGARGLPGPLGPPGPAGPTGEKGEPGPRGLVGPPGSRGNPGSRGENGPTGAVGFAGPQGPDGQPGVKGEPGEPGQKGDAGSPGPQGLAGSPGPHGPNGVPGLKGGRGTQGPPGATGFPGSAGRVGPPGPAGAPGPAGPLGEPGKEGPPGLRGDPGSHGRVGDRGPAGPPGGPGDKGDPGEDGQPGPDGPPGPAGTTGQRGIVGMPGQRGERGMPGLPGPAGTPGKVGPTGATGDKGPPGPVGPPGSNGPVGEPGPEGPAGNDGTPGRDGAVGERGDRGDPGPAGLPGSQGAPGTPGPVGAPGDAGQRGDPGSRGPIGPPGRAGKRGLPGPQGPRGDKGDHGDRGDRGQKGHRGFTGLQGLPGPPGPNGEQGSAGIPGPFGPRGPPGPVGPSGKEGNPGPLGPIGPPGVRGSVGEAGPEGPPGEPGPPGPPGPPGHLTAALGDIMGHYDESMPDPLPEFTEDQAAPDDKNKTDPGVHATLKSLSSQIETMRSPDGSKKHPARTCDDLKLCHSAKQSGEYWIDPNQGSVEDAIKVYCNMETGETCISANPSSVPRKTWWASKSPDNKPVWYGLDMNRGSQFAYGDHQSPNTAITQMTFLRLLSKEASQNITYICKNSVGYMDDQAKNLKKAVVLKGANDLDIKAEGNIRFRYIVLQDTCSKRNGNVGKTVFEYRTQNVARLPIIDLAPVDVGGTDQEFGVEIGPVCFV

B1: human procollagen V proα1(V) chain, produced in HEK-293 cells (natural protein, UniProt P20908 38-1838, looked up)
chain: QPADLLKVLDFHNLPDGITKTTGFCATRRSSKGPDVAYRVTKDAQLSAPTKQLYPASAFPEDFSILTTVKAKKGSQAFLVSIYNEQGIQQIGLELGRSPVFLYEDHTGKPGPEDYPLFRGINLSDGKWHRIALSVHKKNVTLILDCKKKTTKFLDRSDHPMIDINGIIVFGTRILDEEVFEGDIQQLLFVSDHRAAYDYCEHYSPDCDTAVPDTPQSQDPNPDEYYTEGDGEGETYYYEYPYYEDPEDLGKEPTPSKKPVEAAKETTEVPEELTPTPTEAAPMPETSEGAGKEEDVGIGDYDYVPSEDYYTPSPYDDLTYGEGEENPDQPTDPGAGAEIPTSTADTSNSSNPAPPPGEGADDLEGEFTEETIRNLDENYYDPYYDPTSSPSEIGPGMPANQDTIYEGIGGPRGEKGQKGEPAIIEPGMLIEGPPGPEGPAGLPGPPGTMGPTGQVGDPGERGPPGRPGLPGADGLPGPPGTMLMLPFRFGGGGDAGSKGPMVSAQESQAQAILQQARLALRGPAGPMGLTGRPGPVGPPGSGGLKGEPGDVGPQGPRGVQGPPGPAGKPGRRGRAGSDGARGMPGQTGPKGDRGFDGLAGLPGEKGHRGDPGPSGPPGPPGDDGERGDDGEVGPRGLPGEPGPRGLLGPKGPPGPPGPPGVTGMDGQPGPKGNVGPQGEPGPPGQQGNPGAQGLPGPQGAIGPPGEKGPLGKPGLPGMPGADGPPGHPGKEGPPGEKGGQGPPGPQGPIGYPGPRGVKGADGIRGLKGTKGEKGEDGFPGFKGDMGIKGDRGEIGPPGPRGEDGPEGPKGRGGPNGDPGPLGPPGEKGKLGVPGLPGYPGRQGPKGSIGFPGFPGANGEKGGRGTPGKPGPRGQRGPTGPRGERGPRGITGKPGPKGNSGGDGPAGPPGERGPNGPQGPTGFPGPKGPPGPPGKDGLPGHPGQRGETGFQGKTGPPGPPGVVGPQGPTGETGPMGERGHPGPPGPPGEQGLPGLAGKEGTKGDPGPAGLPGKDGPPGLRGFPGDRGLPGPVGALGLKGNEGPPGPPGPAGSPGERGPAGAAGPIGIPGRPGPQGPPGPAGEKGAPGEKGPQGPAGRDGLQGPVGLPGPAGPVGPPGEDGDKGEIGEPGQKGSKGDKGEQGPPGPTGPQGPIGQPGPSGADGEPGPRGQQGLFGQKGDEGPRGFPGPPGPVGLQGLPGPPGEKGETGDVGQMGPPGPPGPRGPSGAPGADGPQGPPGGIGNPGAVGEKGEPGEAGEPGLPGEGGPPGPKGERGEKGESGPSGAAGPPGPKGPPGDDGPKGSPGPVGFPGDPGPPGEPGPAGQDGPPGDKGDDGEPGQTGSPGPTGEPGPSGPPGKRGPPGPAGPEGRQGEKGAKGEAGLEGPPGKTGPIGPQGAPGKPGPDGLRGIPGPVGEQGLPGSPGPDGPPGPMGPPGLPGLKGDSGPKGEKGHPGLIGLIGPPGEQGEKGDRGLPGPQGSSGPKGEQGITGPSGPIGPPGPPGLPGPPGPKGAKGSSGPTGPKGEAGHPGPPGPPGPPGEVIQPLPIQASRTRRNIDASQLLDDGNGENYVDYADGMEEIFGSLNSLKLEIEQMKRPLGTQQNPARTCKDLQLCHPDFPDGEYWVDPNQGCSRDSFKVYCNFTAGGSTCVFPDKKSEGARITSWPKENPGSWFSEFKRGKLLSYVDAEGNPVGVVQMTFLRLLSASAHQNVTYHCYQSVAWQDAATGSYDKALRFLGSNDEEMSYDNNPYIRALVDGCATKKGYQKTVLEIDTPKVEQVPIVDIMFNDFGEASQKFGFEVGPACFMG
  stoichiometry N: ~2
